Source: patent publication US9012420B2, “Aptamer for chymase, and use thereof” (Ribomic Inc., priority 2009, dated 2015)
Oligonucleotides are written 5' to 3', each unit as a sugar letter and its base; * is a phosphorothioate linkage, no mark a phosphodiester; rarer units and linkages stand in square brackets, end groups in braces. Plain capitals give the bases only. r = 2'-OH (RNA); f = 2'-fluoro

T1: chymase (Homo sapiens, UniProt P23946)
T1 sequence (P23946 22-247): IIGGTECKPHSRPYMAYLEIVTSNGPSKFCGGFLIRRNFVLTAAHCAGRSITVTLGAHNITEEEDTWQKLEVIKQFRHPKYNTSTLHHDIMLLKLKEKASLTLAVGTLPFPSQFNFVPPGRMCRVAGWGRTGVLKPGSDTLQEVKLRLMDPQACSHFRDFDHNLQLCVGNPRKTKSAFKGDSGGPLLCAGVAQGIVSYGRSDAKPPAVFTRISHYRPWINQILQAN

T2: chymase (recombinant, manufactured by SIGMA) (Homo sapiens, UniProt P23946)
T2 construct: purchased SIGMA; host or cells: yeast
T2 sequence (P23946 22-247): T1 sequence (P23946 22-247)

B1: 30 (nucleic acid)
chain: rGrGrGrAfCrGrGfUrArGrGrArAfUfUfCrGfUfCfCfCfUfCfUfUrGfUfCfUrAfUfUfUfUrGfCrArGrAfUrArGrAfCfUfUrArArArGfCrArArAfCrAfUrArGrArArGrArGfCrGrGfCfCrGfC
B2: 20 (nucleic acid)
chain: rGrGrGrAfCrGrGfUrArGrGrArAfUfUfCrArArArAfUfCrArGfCfUrGrAfUfUfUrGfUrArAfUfUfUfUfUfUfUrAfCrAfCrArGrGfCrArArArAfCrAfCrAfUrArGrArArGrArGfCrGrGfCfCrGfC
modifications: aptamer
B3: 27 (nucleic acid)
chain: rGrGrGrAfCrGrGfUrArGrGrArAfUfUfCfCrGfUfCrAfUfCrGrGfUfUrGfCrArArAfUfUrGrArArArAfUrAfCrArArArAfCrArArGrGrAfCrArAfCfCrAfUrArGrArArGrArGfCrGrGfCfCrGfC
modifications: aptamer
B4: 16 (nucleic acid)
chain: rGrGrGrAfCrGrGfUrArGrGrArAfUfUfCfCfCrAfUrGrAfCfUrGrArArArArAfCrGfUfCrArGfUrArArArAfUfCfCrGrArArArAfUfCrAfUrAfUfCrAfUrArGrArArGrArGfCrGrGfCfCrGfC
modifications: aptamer
B5: 25 (nucleic acid)
chain: rGrGrGrAfCrGrGfUrArGrGrArAfUfUfCrArGfCfUrGrAfCfUfCfCrArAfUrGfCrAfCrAfCrGfUrArGrAfUrArGrArGfUfUrArArArAfCrGfUfUrGfCrAfUrArGrArArGrArGfCrGrGfCfCrGfC
modifications: aptamer
B6: 18 (nucleic acid)
chain: rGrGrGrAfCrGrGfUrArGrGrArAfUfUfCrGrArAfCrGrAfCrArArAfUfUrAfUrArGrArAfCfUfUfCrGfUfUfUrGrAfCrAfUfUfCfCrAfCrAfCfCrAfCrAfUrArGrArArGrArGfCrGrGfCfCrGfC
modifications: aptamer
B7: 29 (nucleic acid)
chain: rGrGrGrAfCrGrGfUrArGrGrArAfUfUfCrAfCrGrAfCfCrGfCfCfCrArArArArArAfUrGrGfUrGrAfCrAfUfUfUfUrArGrArArAfCrAfCfCrGrArAfCrAfUrArGrArArGrArGfCrGrGfCfCrGfC
modifications: aptamer
B8: 26 (nucleic acid)
chain: rGrGrGrAfCrGrGfUrArGrGrArAfUfUfCrGfUfCrGrAfUfUfCfUrAfCrArGrAfUrArGrArGrAfUrArArArGfUrArGrArAfUfUfUrArAfCrArArArAfCrAfUrArGrArArGrArGfCrGrGfCfCrGfC
modifications: aptamer
B9: 31 (nucleic acid)
chain: rGrGrGrAfCrGrGfUrArGrGrArAfUfUfCrGfUfCfCfCfUfCrAfUrGfUfCfUrAfUfUfUfUrGfCrArGrAfUrArGrAfCfUfUrArArArGfCrArArAfCrAfUrArGrArArGrArGfCrGrGfCfCrGfC
B10: 19 (nucleic acid)
chain: rGrGrGrAfCrGrGfUrArGrGrArAfUfUfCfCfCrAfCfUrGfCrArAfUfUfCrArGfCrArGrArArArArArAfUfUfCfCrGrArArArArAfCrAfCrAfCrAfCfCrAfUrArGrArArGrArGfCrGrGfCfCrGfC
modifications: aptamer
B11: 23 (nucleic acid)
chain: rGrGrGrAfCrGrGfUrArGrGrArAfUfUfCrAfUrAfUrGfUrAfCfUfCfCrGfUfCfCfUrGrAfCrArArArAfUrGfUfCrArAfUrGrAfCrArArAfCrGfUfUfCrAfUrArGrArArGrArGfCrGrGfCfCrGfC
modifications: aptamer
B12: 28 (nucleic acid)
chain: rGrGrGrAfCrGrGfUrArGrGrArAfUfUfCrArAfUfUfUfCfUfUfUfCfUrAfUfUfCfUfCrAfCfCfUrGrArGfUrAfUrAfUfCrArGrGfCrAfCrArGfUrAfCrAfUrArGrArArGrArGfCrGrGfCfCrGfC
modifications: aptamer
B13: 24 (nucleic acid)
chain: rGrGrGrAfCrGrGfUrArGrGrArAfUfUfCfCfCfUfUfCrAfUrArGfUrArGrArAfUrGfUfUrGrGfUfUfUfCfUrAfCrArArArArGfCrGrAfCrArArGfCrAfUrArGrArArGrArGfCrGrGfCfCrGfC
modifications: aptamer
B14: 17 (nucleic acid)
chain: rGrGrGrAfCrGrGfUrArGrGrArAfUfUfCfCrGfUfUfCrGfCrArGrArArAfCrGrArAfCfUfUfUfUrArArArArArAfUrGfUrAfCrGfUrGrGrGrArGfCrAfCrAfUrArGrArArGrArGfCrGrGfCfCrGfC
B15: 22 (nucleic acid)
chain: rGrGrGrAfCrGrGfUrArGrGrArAfUfUfCfCfCrGrAfCrAfCrArArArAfUrGfUrGfUrGrAfUfUrArAfUfUfCfCrGrArAfCrArAfCrArArArGfUrArAfCrAfUrArGrArArGrArGfCrGrGfCfCrGfC
modifications: aptamer

What was measured:
chymase = biological target: T1, chymase; experiment: Surface plasmon resonance (Biacore T100), aptamer immobilized on SA chip, chymase injected as analyte; format: binding; design: key: ++: a sequence that binds to chymase significantly more strongly than the negative control 40N; +: a sequence that binds to chymase equivalently compared with the negative control 40N; settings: Table 1; about 1000 RU nucleic acid immobilized, chymase 0.2 μM analyte, running buffer solution A; compared with 40N
Description: Binding strength is measured using Biacore T100 (manufactured by GE Healthcare). In a method of measurement, the aptamer is first immobilized onto a sensor chip, the amount immobilized being about 1000 RU. 20 μL of a chymase solution for analyte, prepared at 0.2 μM, is injected, and the binding of chymase to the aptamer is detected. An RNA comprising a random nucleotide sequence of 30 or 40 nucleotides is used as a negative control.
The binding activities against chymase of the nucleic acids shown by SEQ ID NO: 4-20 and 22-34 were determined by the surface plasmon resonance method using Biacore T100 (manufactured by GE Healthcare). The sensor chip used was the SA chip, which had streptavidin immobilized thereon. Bound thereto was about 1500 RU of a 16-nucleotide Poly dT with biotin bound to the 5′ end thereof. […] 20 μL of chymase for analyte, prepared at 0.2 μM, was injected. Solution A was used as a running buffer.
The binding activities against chymase of the nucleic acids shown by SEQ ID NO: 38-48 were evaluated by the surface plasmon resonance method. In the evaluations for SEQ ID NO: 38-48, measurements were taken in the same manner as Example 1. Solution C was used as a running buffer.

[1] = biological target: T2, chymase (recombinant, manufactured by SIGMA); experiment: Chymase inhibitory activity using synthetic substrate Suc-Ala-Ala-Pro-Phe-MCA; format: biochemical; settings: Table 3; substrate 100 μM, solution C, 37° C.; mean value for 2 to 3 measurements
Description: A first method employs a synthetic substrate. A useful chymase substrate is Suc-Ala-Ala-Pro-Phe-MCA (4-methylcoumaryl-7-amide group) (manufactured by Peptide Institute, Inc.), which contains the 4-amino acid peptide “Ala-Ala-Pro-Phe”, a standard substrate for chymotrypsin-like proteases.
The assay is performed using a 96-well plate (F16 Black Maxisorp Fluoronunc, manufactured by Nunc), with a reaction mixture volume of 100 μL, in a buffer solution (solution C; see Example 2 below). First, each nucleic acid is prepared in solution C to obtain 50 μL solutions. After 10 μL of the 1 mM substrate prepared in solution C is added, the plate is set to the microplate reader SpectraMax190 (manufactured by Molecular Devices Corporation), and incubated at 37° C. for 5 minutes. Separately, 0.05 μg of chymase (recombinant, manufactured by SIGMA) is diluted in solution C, and 40 μL of this dilution is incubated at 37° C. for 5 minutes. The chymase solution is added to the mixture of the nucleic acid and substrate to initiate an enzyme reaction. The plate containing the reaction mixture is set to the microplate reader SpectraMax190 (manufactured by Molecular Devices Corporation), and examined for time-dependent changes in the fluorescence intensity at 37° C. for 5 minutes (excitation wavelength 380 nm, detection wavelength 460 nm). A linear approximation of the increase in the fluorescence of the AMC (7-amino-4-methylcoumarine) released from the substrate by chymase activity is generated, and its slope is taken as the initial reaction velocity. For control, samples are treated and analyzed in the same manner in two cases: use of a nucleic acid pool containing a random sequence of 30 or 40 nucleotides (negative control), and use of chymostatin, a known chymotrypsin-like serine protease inhibitor (positive control). Taking the initial reaction velocity without the nucleic acid and inhibitor as a 100% enzyme activity, the inhibitory rate for each test substance is calculated, and the inhibitor concentration required to cause a 50% inhibition of the enzyme activity (IC50) is determined.
Whether the nucleic acids shown by SEQ ID NO: 4-20, 22-34, and 38-48 inhibit the enzyme activity of chymase was determined as described below. The chymase substrate used was Suc-Ala-Ala-Pro-Phe-MCA (manufactured by Peptide Institute, Inc.), which contains the 4-amino-acid peptide Ala-Ala-Pro-Phe, a standard substrate for chymotrypsin-like proteases. Here, Suc is a protecting succinyl group, and MCA is a 4-methylcoumaryl-7-amide group; upon cleavage of the C-terminal side of phenylalanine, AMC (7-amino-4-methylcoumarine) is released. By detecting the fluorescence of this AMC, the enzyme activity of chymase can be determined. The assay was performed using a 96-well plate (F16 Black Maxisorp Fluoronunc, manufactured by Nunc), with a reaction mixture volume of 100 μL, in solution C as a buffer solution. First, each nucleic acid was serially diluted to 0.0027-2 μM concentrations in solution C to obtain 50 μL solutions. After 10 μL of the 1 mM substrate prepared in solution C was added thereto, the plate was set to the microplate reader SpectraMax190 (manufactured by Molecular Devices Corporation), and incubated at 37° C. for 5 minutes. Separately, 0.05 μg (or 0.005 μg) of chymase (recombinant, manufactured by SIGMA) was diluted in solution C to obtain a 40 μL chymase solution, and incubated at 37° C. for 5 minutes. The chymase solution was added to the mixture of the nucleic acid and substrate to initiate an enzyme reaction. The final chymase concentration in the reaction mixture was 16.7 nM (or 1.67 nM), the final substrate concentration being 100 μM. The plate containing the reaction mixture was set to the microplate reader SpectraMax190 (manufactured by Molecular Devices Corporation), and examined for time-dependent changes in the fluorescence intensity at 37° C. for 5 minutes (or 30 minutes) (excitation wavelength 380 nm, detection wavelength 460 nm). […]

Molecule | Binding activity as determined using Biacore (chymase) | IC50 [1] [nM]
B1 | ++ | 147 ± 44
B2 | + | 282 ± 13
B3 | ++ | > 500
B4 | ++ | > 500
B5 | ++ | 79 ± 28
B6 | ++ | 58 ± 21
B7 | ++ | > 500
B8 | ++ | 106 ± 4
B9 | + | 155 ± 39
B10 | ++ | 163 ± 1
B11 | ++ | 238 ± 60
B12 | + | 45 ± 4
B13 | ++ | 92 ± 3
B14 | ++ | 92 ± 42
B15 | + | 105 ± 9
